The koff is the rate constant with which the complex falls apart. By kon is commonly meant the second-order rate constant of association.

These results are taken from patent US20200291112A1 (Memorial Sloan Kettering, published 2020).

Experiment [1] addresses T1, Human GPA33 (Novoprotein), recombinant protein immobilized on CM5 chips (human, UniProt Q99795 22-235).
T1 construct: also called GPA33 recombinant protein; Human Glycoprotein A33
T1 sequence: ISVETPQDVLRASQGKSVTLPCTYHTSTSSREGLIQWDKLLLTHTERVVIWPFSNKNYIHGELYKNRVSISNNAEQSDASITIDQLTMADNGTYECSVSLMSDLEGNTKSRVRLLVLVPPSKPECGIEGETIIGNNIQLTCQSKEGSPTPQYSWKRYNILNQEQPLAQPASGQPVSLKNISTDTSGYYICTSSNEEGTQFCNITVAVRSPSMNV
As to the kind of experiment: SPR, parental huA33-BsAb, the reference of the column. (In SPR one partner is held on a chip, and binding of the other changes the refractive index at the surface.)

Experiment [2] deals with T1, Human GPA33 (Novoprotein), recombinant …. As to the kind of experiment: SPR (Biacore T100), GPA33 immobilized on CM5 chip, antibody flowed, 1:1 model; measured at 25 C and 37 C; bispecific huA33-BsAb; GPA33 immobilized on CM5 chip; apparent affinity (avidity). The procedure: (§1) SPR analysis. Human GPA33 (Novoprotein, Summit, N.J.) was immobilized on CM5 chips. Five concentrations of 2-fold serially diluted huA33 IgG1 or huA33-BsAbs (starting at 20 nM) were flowed over the chip using a Biacore™ T100 system (GE Healthcare, Chicago, Ill.). Binding kinetics of huA33 were measured at 25° C. and binding kinetics of huA33-BsAbs were measured at both 25° C. and 37° C. The sensorgrams were fitted with 1:1 binding model for both to derive kinetic parameters.

Experiment [3] shares this target. Description: SPR (Biacore T100), human GPA33 immobilized on CM5 chip, huA33-BsAb flowed over, 25 °C, 1:1 binding model; the KD column head prints no unit, M follows from the ka and kd units [contd.) C]. How it is done:
as §1

The target is the same in experiment [4]. As to the kind of experiment: SPR (Biacore T100), human GPA33 immobilized on CM5 chip, huA33-BsAb flowed over, 37 °C, 1:1 binding model; the KD column head prints no unit, M follows from the ka and kd units [contd.) C]. How it is done: as §1
Experiment [5] has the same target. Description: SPR, GPA33 immobilized on CM5 chip, parental huA33-BsAb; temperature not given for this table; the KD column head prints no unit. The procedure: as §1
Experiment [6] deals with T2, GPA33 on the surface of human colon and gastric cancer cell lines (human, UniProt Q99795 22-319).
T2 construct: whole, on cells; Endogenous antigen on tumor cell lines stained in FACS and used as targets in TDCC assays; also called target antigens on colon cancer cells
T2 sequence (looked up): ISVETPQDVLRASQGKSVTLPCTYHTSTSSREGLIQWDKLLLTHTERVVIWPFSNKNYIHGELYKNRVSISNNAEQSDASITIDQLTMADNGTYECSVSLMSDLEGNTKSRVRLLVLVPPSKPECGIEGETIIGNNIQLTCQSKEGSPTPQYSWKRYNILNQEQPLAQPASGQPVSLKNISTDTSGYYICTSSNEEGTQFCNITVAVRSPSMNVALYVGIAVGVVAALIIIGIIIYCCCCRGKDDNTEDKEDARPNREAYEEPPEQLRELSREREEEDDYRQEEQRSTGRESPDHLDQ
As to the kind of experiment: FACS staining of SW1222 colon cancer cells with titrated huA33-BsAb, geometric mean MFI [contd.) D].

The target in experiment [7] is T2, GPA33 on the surface of human colon and …. Description: cell-based or functional assay.
Experiment [8] addresses T1, Human GPA33 (Novoprotein), recombinant …. As to the kind of experiment: SPR (Biacore T100), human GPA33 immobilized on CM5 chip, huA33-BsAb flowed over, 25 °C, 1:1 binding model [contd.) C]. The procedure: as §1
Experiment [9] shares this target. As to the kind of experiment: SPR (Biacore T100), human GPA33 immobilized on CM5 chip, huA33-BsAb flowed over, 37 °C, 1:1 binding model [contd.) C]. How it is done:
as §1

For experiment [10] the target is unchanged. Description: SPR (Biacore T100), GPA33 immobilized on CM5 chip, antibody flowed, 1:1 model; parental huA33 IgG, not the bispecific. The procedure:
as §1

For experiment [11] the target is unchanged. As to the kind of experiment: SPR (Biacore T100), GPA33 recombinant protein immobilized on CM5 chip, antibody flowed over.
Experiment [12] shares this target. Description: SPR (Biacore T100), GPA33 recombinant protein immobilized on CM5 chip, IgG1 flowed over, 25 °C, 1:1 binding model. The procedure: as §1

B1: huA33-BsAb (bispecific antibody, human IgG1, kappa, N297A)
heavy: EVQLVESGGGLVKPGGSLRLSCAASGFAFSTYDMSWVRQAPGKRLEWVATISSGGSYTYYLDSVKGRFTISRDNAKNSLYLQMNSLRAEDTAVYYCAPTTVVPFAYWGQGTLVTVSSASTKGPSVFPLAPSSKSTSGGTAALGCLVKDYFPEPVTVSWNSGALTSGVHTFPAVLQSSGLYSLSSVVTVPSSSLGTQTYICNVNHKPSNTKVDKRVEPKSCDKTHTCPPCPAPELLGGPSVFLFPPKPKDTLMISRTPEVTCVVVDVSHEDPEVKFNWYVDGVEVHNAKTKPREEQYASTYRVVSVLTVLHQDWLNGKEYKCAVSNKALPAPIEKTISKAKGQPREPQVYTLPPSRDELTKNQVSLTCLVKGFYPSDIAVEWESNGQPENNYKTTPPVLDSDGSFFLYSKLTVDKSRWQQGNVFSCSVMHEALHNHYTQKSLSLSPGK
light: DIQMTQSQSSLSTSVGDRVTITCKASQNVRTVVAWYQQKPGKSPKTLIYLASNRHTGVPSRFSGSGSGTEFTLTISNVQPEDFADYFCLQHWSYPLTFGSGTKLEIKRTVAAPSVFIFPPSDEQLKSGTASVVCLLNNFYPREAKVQWKVDNALQSGNSQESVTEQDSKDSTYSLSSTLTLSKADYEKHKVYACEVTHQGLSSPVTKSFNRGECTSGGGGSGGGGSGGGGSQVQLVQSGGGVVQPGRSLRLSCKASGYTFTRYTMHWVRQAPGKCLEWIGYINPSRGYTNYNQKFKDRFTISRDNSKNTAFLQMDSLRPEDTGVYFCARYYDDHYSLDYWGQGTPVTVSSGGGGSGGGGSGGGGSGGGGSGGGGSGGGGSDIQMTQSPSSLSASVGDRVTITCSASSSVSYMNWYQQTPGKAPKRWIYDTSKLASGVPSRFSGSGSGTDYTFTISSLQPEDIATYYCQQWSSNPFTFGCGTKLQITR
notes: huA33 (H2L2) IgG1 with the humanized OKT3 scFv fused to the C-terminus of the light chain via a (G4S)3 linker; also called T-cell engaging huA33-BsAb; humanized A33-bispecific antibody
Consider B1, for which, in [1], the “Fold difference/Parental” value worked out at 1 fold. The Kd was roughly 0.2 nM in experiment [2], 0.212 nM in experiment [3], 0.245 nM in experiment [4] and 0.168 nM in experiment [5]. Further, in experiment [6], the “EC50 (read off the curve)” value was roughly 0.3 µg. Besides, the “EC50 of T-cell dependent cytotoxicity against Colo205 cells (sorted fresh CD4 memory T cells, E:T=5:1, 48 hours, LDH assay)” value in experiment [7] was 0.025 nM. Further, the off-rate (koff) was determined as 0.000478 s⁻¹ in experiment [8] and 0.00167 s⁻¹ in experiment [9]. The kon in experiment [8] stood at 2.25e+06 M⁻¹ s⁻¹; in experiment [9], 6.81e+06 M⁻¹ s⁻¹.

B2: huA33-IgG1 (H2L2) (antibody, V domains shown)
VH: EVQLVESGGGLVKPGGSLRLSCAASGFAFSTYDMSWVRQAPGKRLEWVATISSGGSYTYYLDSVKGRFTISRDNAKNSLYLQMNSLRAEDTAVYYCAPTTVVPFAYWGQGTLVTVSS
VL: DIQMTQSQSSLSTSVGDRVTITCKASQNVRTVVAWYQQKPGKSPKTLIYLASNRHTGVPSRFSGSGSGTEFTLTISNVQPEDFADYFCLQHWSYPLTFGSGTKLEIKR
notes: Humanized A33 IgG1, version H2L2; also called 3A3-H2L2; 3A3-H2/L2
On to B2, for which the Kd in experiment [10] was 0.13 nM. In addition, in experiment [11], the Kd was found to be 0.169 nM, the koff came to 0.000363 s⁻¹ and the kon worked out at 2.15e+06 M⁻¹ s⁻¹. Also, in experiment [12], the Kd came to 0.169 nM, the off-rate constant (koff) is 0.000363 s⁻¹ and the kon came to 2.15e+06 M⁻¹ s⁻¹.
